Laboratory results as given in patent publication US20240123070A1 (SHANGHAI GENBASE BIOTECHNOLOGY, published 2024).
Numbering of substitutions follows the chain as printed.

B1: B8.2.4 TCR mutant β98P-Q (TCR, V domains shown)
V domain 1: AQKITQTQPGMFVQEKEAVTLDCTYDTSDPSYGLFWYKQPSSGEMIFLIYQGSYDQQNATEGRYSLNFQKARKSANLVISASQLGDSAMYFCAMRERTGTASKLTFGTGTRLQVTL
V domain 2: DVKVTQSSRYLVKRTGEKVFLECVQDMDHENMFWYRQDPGLGLRLIYFSYDVKMKEKGDIPEGYSVSREKKERFSLILESASTNQTSMYLCASSQTVQPQHFGDGTRLSILE
B2: B8.2.4 TCR mutant β96T-E (TCR, V domains shown)
V domain 1: B1 V domain 1
V domain 2: B1 V domain 2 with T96E, Q98P
B3: B8.2.4 TCR mutant β98P-V (TCR, V domains shown)
V domain 1: B1 V domain 1
V domain 2: B1 V domain 2 with Q98V
B4: B8.2.4 TCR mutant β96T-R (TCR, V domains shown)
V domain 1: B1 V domain 1
V domain 2: B1 V domain 2 with T96R, Q98P
B5: B8.2.4 TCR mutant β96T-Q (TCR, V domains shown)
V domain 1: B1 V domain 1
V domain 2: B1 V domain 2 with T96Q, Q98P
B6: B8.2.4 TCR mutant β95Q-D (TCR, V domains shown)
V domain 1: B1 V domain 1
V domain 2: B1 V domain 2 with Q95D, Q98P
B7: B8.2.4 TCR mutant β96T-W (TCR, V domains shown)
V domain 1: B1 V domain 1
V domain 2: B1 V domain 2 with T96W, Q98P
B8: B8.2.4 TCR mutant β95Q-H (TCR, V domains shown)
V domain 1: B1 V domain 1
V domain 2: B1 V domain 2 with Q95H, Q98P
B9: B8.2.4 TCR mutant β96T-A (TCR, V domains shown)
V domain 1: B1 V domain 1
V domain 2: B1 V domain 2 with T96A, Q98P
B10: B8.2.4 TCR mutant β98P-S (TCR, V domains shown)
V domain 1: B1 V domain 1
V domain 2: B1 V domain 2 with Q98S
B11: B8.2.4 TCR mutant β96T-S (TCR, V domains shown)
V domain 1: B1 V domain 1
V domain 2: B1 V domain 2 with T96S, Q98P
B12: B8.2.4 TCR mutant β95Q-M (TCR, V domains shown)
V domain 1: B1 V domain 1
V domain 2: B1 V domain 2 with Q95M, Q98P
B13: B8.2.4 TCR mutant β95Q-K (TCR, V domains shown)
V domain 1: B1 V domain 1
V domain 2: B1 V domain 2 with Q95K, Q98P
B14: B8.2.4 TCR mutant β95Q-R (TCR, V domains shown)
V domain 1: B1 V domain 1
V domain 2: B1 V domain 2 with Q95R, Q98P
B15: B8.2.4 TCR mutant β95Q-S (TCR, V domains shown)
V domain 1: B1 V domain 1
V domain 2: B1 V domain 2 with Q95S, Q98P
B16: B8.2.4 TCR mutant β96T-M (TCR, V domains shown)
V domain 1: B1 V domain 1
V domain 2: B1 V domain 2 with T96M, Q98P
B17: B8.2.4 TCR mutant β95Q-E (TCR, V domains shown)
V domain 1: B1 V domain 1
V domain 2: B1 V domain 2 with Q95E, Q98P
B18: B8.2.4 TCR mutant β96T-C (TCR, V domains shown)
V domain 1: B1 V domain 1
V domain 2: B1 V domain 2 with T96C, Q98P
B19: B8.2.4 TCR mutant β96T-K (TCR, V domains shown)
V domain 1: B1 V domain 1
V domain 2: B1 V domain 2 with T96K, Q98P
B20: B8.2.4 TCR mutant β97V-A (TCR, V domains shown)
V domain 1: B1 V domain 1
V domain 2: B1 V domain 2 with V97A, Q98P
B21: B8.2.4 TCR mutant β95Q-N (TCR, V domains shown)
V domain 1: B1 V domain 1
V domain 2: B1 V domain 2 with Q95N, Q98P
B22: B8.2.4 TCR mutant β96T-V (TCR, V domains shown)
V domain 1: B1 V domain 1
V domain 2: B1 V domain 2 with T96V, Q98P
B23: B8.2.4 TCR mutant β95Q-T (TCR, V domains shown)
V domain 1: B1 V domain 1
V domain 2: B1 V domain 2 with Q95T, Q98P
B24: B8.2.4 TCR mutant β96T-F (TCR, V domains shown)
V domain 1: B1 V domain 1
V domain 2: B1 V domain 2 with T96F, Q98P
B25: B8.2.4 TCR mutant β98P-T (TCR, V domains shown)
V domain 1: B1 V domain 1
V domain 2: B1 V domain 2 with Q98T
B26: B8.2.4 TCR mutant β96T-D (TCR, V domains shown)
V domain 1: B1 V domain 1
V domain 2: B1 V domain 2 with T96D, Q98P
B27: B8.2.4 TCR mutant β96T-N (TCR, V domains shown)
V domain 1: B1 V domain 1
V domain 2: B1 V domain 2 with T96N, Q98P
B28: B8.2.4 TCR mutant β95Q-I (TCR, V domains shown)
V domain 1: B1 V domain 1
V domain 2: B1 V domain 2 with Q95I, Q98P
B29: B8.2.4 TCR mutant β96T-I (TCR, V domains shown)
V domain 1: B1 V domain 1
V domain 2: B1 V domain 2 with T96I, Q98P
B30: B8.2.4 TCR mutant β95Q-W (TCR, V domains shown)
V domain 1: B1 V domain 1
V domain 2: B1 V domain 2 with Q95W, Q98P
B31: B8.2.4 TCR mutant β95Q-Y (TCR, V domains shown)
V domain 1: B1 V domain 1
V domain 2: B1 V domain 2 with Q95Y, Q98P
B32: B8.2.4 TCR mutant β97V-D (TCR, V domains shown)
V domain 1: B1 V domain 1
V domain 2: B1 V domain 2 with V97D, Q98P
B33: B8.2.4 TCR mutant β98P-Y (TCR, V domains shown)
V domain 1: B1 V domain 1
V domain 2: B1 V domain 2 with Q98Y
B34: B8.2.4 TCR mutant β97V-C (TCR, V domains shown)
V domain 1: B1 V domain 1
V domain 2: B1 V domain 2 with V97C, Q98P
B35: B8.2.4 TCR mutant β96T-Y (TCR, V domains shown)
V domain 1: B1 V domain 1
V domain 2: B1 V domain 2 with T96Y, Q98P
B36: B8.2.4 TCR mutant β95Q-A (TCR, V domains shown)
V domain 1: B1 V domain 1
V domain 2: B1 V domain 2 with Q95A, Q98P
B37: B8.2.4 TCR mutant β95Q-F (TCR, V domains shown)
V domain 1: B1 V domain 1
V domain 2: B1 V domain 2 with Q95F, Q98P
B38: B8.2.4 TCR mutant β98P-W (TCR, V domains shown)
V domain 1: B1 V domain 1
V domain 2: B1 V domain 2 with Q98W
B39: B8.2.4 TCR mutant β95Q-P (TCR, V domains shown)
V domain 1: B1 V domain 1
V domain 2: B1 V domain 2 with Q95P, Q98P
B40: B8.2.4 TCR mutant β96T-H (TCR, V domains shown)
V domain 1: B1 V domain 1
V domain 2: B1 V domain 2 with T96H, Q98P
B41: B8.2.4 TCR mutant β96T-P (TCR, V domains shown)
V domain 1: B1 V domain 1
V domain 2: B1 V domain 2 with T96P, Q98P
B42: B8.2.4 TCR mutant β96T-G (TCR, V domains shown)
V domain 1: B1 V domain 1
V domain 2: B1 V domain 2 with T96G, Q98P
B43: B8.2.4 TCR mutant β95Q-V (TCR, V domains shown)
V domain 1: B1 V domain 1
V domain 2: B1 V domain 2 with Q95V, Q98P
B44: B8.2.4 TCR mutant β96T-L (TCR, V domains shown)
V domain 1: B1 V domain 1
V domain 2: B1 V domain 2 with T96L, Q98P
B45: B8.2.4 TCR mutant β95Q-L (TCR, V domains shown)
V domain 1: B1 V domain 1
V domain 2: B1 V domain 2 with Q95L, Q98P
B46: B8.2.4 TCR mutant β95Q-C (TCR, V domains shown)
V domain 1: B1 V domain 1
V domain 2: B1 V domain 2 with Q95C, Q98P
B47: B8.2.4 TCR mutant β95Q-G (TCR, V domains shown)
V domain 1: B1 V domain 1
V domain 2: B1 V domain 2 with Q95G, Q98P

Each binder was assayed against KRAS G13D antigen (G13D-RT6, SEQ ID NO: 20) loaded on Lovo-DPA0301:DPB0501 cells (human) (assay: cell-based or functional assay).

Row | Binder | TCR Mut RLU/WT RLU
1 | B1 | 0.45 ratio
2 | B2 | 0.06 ratio
3 | B3 | 0.63 ratio
4 | B4 | 0.49 ratio
5 | B5 | 0.57 ratio
6 | B6 | 0.6 ratio
7 | B7 | 0.64 ratio
8 | B8 | 0.68 ratio
9 | B9 | 0.77 ratio
10 | B10 | 0.94 ratio
11 | B11 | 0.8 ratio
12 | B12 | 0.99 ratio
13 | B13 | 0.3 ratio
14 | B14 | 0.43 ratio
15 | B15 | 0.61 ratio
16 | B16 | 0.35 ratio
17 | B17 | 0.81 ratio
18 | B18 | 0.78 ratio
19 | B19 | 0.84 ratio
20 | B20 | 0.56 ratio
21 | B21 | 0.6 ratio
22 | B22 | 0.97 ratio
23 | B23 | 0.59 ratio
24 | B24 | 0.42 ratio

Row | Binder | TCR Mut RLU/WT RLU
25 | B25 | 0.47 ratio
26 | B26 | 0.28 ratio
27 | B27 | 0.82 ratio
28 | B28 | 0.74 ratio
29 | B29 | 0.41 ratio
30 | B30 | 0.88 ratio
31 | B31 | 0.92 ratio
32 | B32 | 0.21 ratio
33 | B33 | 0.25 ratio
34 | B34 | 0.37 ratio
35 | B35 | 0.4 ratio
36 | B36 | 0.86 ratio
37 | B37 | 0.34 ratio
38 | B38 | 0.81 ratio
39 | B39 | 0.21 ratio
40 | B40 | 0.82 ratio
41 | B41 | 0.39 ratio
42 | B42 | 0.05 ratio
43 | B43 | 0.76 ratio
44 | B44 | 0.31 ratio
45 | B45 | 0.64 ratio
46 | B46 | 1.14 ratio
47 | B47 | 1.03 ratio
